# Source: doi:10.1101/2023.03.31.535174
# B1: AGTGCATTA probe with distal shape mutations (series, up to six point mutations) (dsDNA)
# DNA 1: GATAAAATGAGTAAAGTGCATTAAATGTTGTACACC
# DNA 2: GGTGTACAACATTTAATGCACTTTACTCATTTTATC
# Molecular target: T1, AP2-I_D3 (AP2 domain 3) (Plasmodium falciparum, UniProt Q8IJW6 775-824)
# T1 chain: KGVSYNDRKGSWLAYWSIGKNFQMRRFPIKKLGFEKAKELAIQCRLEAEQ
# Experiment: EMSA
binder,measurement,value
B1,binding result,binds
